Assay results reported in the supplement of paper PMC12042874.
± gives the uncertainty stated by the source.

Test: amyloid nucleation score (Sup35N fusion, yeast selection) (log enrichment); library NNK2; higher = more nucleation; inactive = no reads after selection
How it was run: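 The nucleation score is a DiMSum log enrichment of output over input reads, centred on the mode score of non-aggregating sequences. Sequences under 100 input reads were excluded, and reads came from Illumina sequencing of plasmid inserts. Psi-negative yeast expressing Sup35N fused to peptides of 20 random codons were induced with 100 μM copper sulfate for 24 hours and grown 7 days at 30°C on medium lacking adenine and uracil. Random libraries had three technical output replicates.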

Substance | amyloid nucleation score
SILHSPLSVVYASNISCLF | 7.169 ± 0.066
SLSFIGQIQSIITNRLNSGV | 5.876 ± 0.039
ESFAFELTVLHIS | 1.11 ± 0.38
VLDSAYCAFVYFFIVVIWWF | -0.595 ± 0.61
CQGHQWSYRPVP | 0.684 ± 0.35
NGVSMESRFQFSDWWNPTYY | -0.847 ± 0.64
FRMNEQSPAEWSRSVYFGGG | -0.346 ± 0.49
IIVSATSEGSLRRIRMKMGW | 4.27 ± 0.11
VWHVDTAVLTRA | 1.08 ± 0.41
FVYTLAYNRRWYSRAVSFES | -0.461 ± 0.79
QSRDKYLKFRPSLWATEMTW | -0.127 ± 0.31
CSFRAFLWCILGGGENFNSS | 2.91 ± 0.065
TCEYVVN | -0.659 ± 0.54
MNVYMGFTKVLSAVPRLLYG | -0.408 ± 0.56
RSIISFPLFLFSIQLIPPWA | -0.792 ± 0.6
NENKILSDL | -0.585 ± 0.36
WGSSFR | 0.592 ± 0.24
PIIFSLSTFSCNVYEIRSNG | 3.57 ± 0.093
GVWSITNRFQEIVGNCLCVR | 0.576 ± 0.16
CGSQKWVQYKIMKWYK | 0.627 ± 0.57
GSWFVPRMSLSWAGSETGPQ | inactive
VLYFLYGKWQKTQRSNRYLQ | -0.674 ± 0.76
FLTNGESGTMGI | inactive
SCQLQDKLMLS | 0.999 ± 0.16
MTALATRRCHPLYISA | -0.661 ± 0.42

Substance | amyloid nucleation score
VYTCSIFYLGLVYRHISDSS | inactive
NLRSLECLCMRCK | -0.145 ± 0.79
REVLWCLPDQGELPGGVTFG | 2.44 ± 0.08
LGSNEPL | -0.337 ± 0.63
CAIFVRERW | 5.03 ± 0.089
SRRVFVKWGNWSCFVVVEDN | 0.072 ± 0.16
CGFFKVRENGFCGFKKMSFS | -1.12 ± 1.1
THVDFLWIVNLGGSHI | 7.519 ± 0.041
SIDEVGTANVPHGDW | 0.741 ± 0.25
NDVNDLMGCTNQRGMYPQII | inactive
YVLSYSCLDLYSIHL | 5.64 ± 0.073
QKTRLSPVYHVGNSGLSPSV | 0.29 ± 0.77
RGDHDCW | 0.77 ± 0.32
PDIYLYFLKKVMRS | -1.57 ± 1.1
VSSPCGRFSFNNNGGKVWTW | -0.111 ± 0.61
EVDVIS | -0.885 ± 0.64
KSRLGCTWSGAHQSIRPLRR | 1.22 ± 0.41
CLCGPRIGLSVFNYVYFGMG | 4.2 ± 0.046
DPNLPETVTGVIMFASVGGA | -0.13 ± 0.76
PNPRPVSICNRLYPF | -0.246 ± 0.38
RACADGTSEPNAVALCLNAV | 0.832 ± 0.43
TLIGKFRTNNFRSMVDAESK | -0.59 ± 0.63
VCYRSKASILLYGTPGGVRV | -0.184 ± 1.1
NGQYDDTG | 2.32 ± 0.14
VSARGSWFLTTSAAC | -1.29 ± 1.1

Substance | amyloid nucleation score
LYLTYKVVHTSTPPVASYCE | 5.855 ± 0.033
IGAMN | 0.586 ± 0.44
PSYPSVSRVK | 0.151 ± 0.24
AYLFHLFIIS | -0.017 ± 0.48
KESKLYLFLCFL | 7.832 ± 0.048
WGTDISYMGRSGCTLSGCIY | -1.13 ± 0.55
KIFFGNNRF | 3.4 ± 0.13
AYSGIFTRNAEVYSDIYLQ | -0.499 ± 0.76
STWVWMSFCVNLLDPHACGS | 7.542 ± 0.03
FACIGGVLHAGGGVGAIGA | 0.69 ± 0.42
KKAVSACPLEYSVVINISGG | 7.985 ± 0.026
RPWLNRAFDVISYYAIMACR | 0.091 ± 0.3
YFGCQMMSN | 0.459 ± 0.54
SRKFFPVFN | inactive
SVLAGDLNLRLVFYCMFMYH | 1.61 ± 0.31
IRLYKGVTWIFLSGSYLLRD | -0.891 ± 1.1
AGHWLCLVTNFVVRGGDKLF | 2.76 ± 0.13
EDWNPSTMFVRFWYNSACWY | 0.204 ± 0.6
QSVYMFRKNNDFPRGTAGSQ | -0.883 ± 1.1
FWVMANYRH | 3.18 ± 0.047
CGVFSLQCYHVDESTRCREF | 6.401 ± 0.061
DVRRLLFLLLGQ | -0.796 ± 0.4
WRVGVK | 0.312 ± 0.25
VMNSVHVFQYTSCCLILVGL | 6.945 ± 0.062
MFSYTVSVLDLIYKSIWECE | -0.941 ± 0.35

Substance | amyloid nucleation score
GSKALVSGGFVSGVKYGKAI | inactive
RSFGYIMLWVMIFNRIKLIF | inactive
TDLSLWNTILRVAG | 0.05 ± 0.31
RYSFD | -0.588 ± 1.1
FCTHSQARDQVNSNHTMALL | 2.84 ± 0.064
NLCSKRRNL | -0.927 ± 0.78
GVGSCTRQLWRISRSTPLKL | 2.65 ± 0.069
ALIYCVFSFPFEAYDYMRFR | inactive
TLSHPWADLLVSETHMVYR | -0.381 ± 1.1
GSHKK | -1 ± 1.1
LRSWSLAMRGDIMGTVRWLR | 0.413 ± 0.56
NNLCQ | -0.1 ± 0.32
NIFRRLLSIIIVFDQDRRKM | -1.01 ± 1.1
AYYYWLGG | -0.381 ± 1.1
RAWKSPYCLNTRMSTEGHEY | 0.348 ± 0.48
RPQKSSARRIVPFMMFWLGN | 0.426 ± 0.36
AFGRTTKKDVCLFGYPKQVE | -0.235 ± 0.46
CLHCSRFSKTLYRKFRNREN | -0.33 ± 0.76
YMVGVSITMCCRATLNFSSM | 5.21 ± 0.06
MFSIYLLSCPLYISMNWSCR | 0.183 ± 1
SAKNMFDMYNCLDTLVVSWD | -0.095 ± 0.46
KVWECLEAGNFGVDMRWCDR | 0.524 ± 0.31
VWGRMLRVGFGEV | 0.066 ± 0.63
AFCLTLTGACLSMSDVARFT | 4.19 ± 0.098
SLRDARGRSYYRFNIISVML | 5.591 ± 0.033

Substance | amyloid nucleation score
FMFPILDSVTPIFDIVITGD | inactive
VGAMLKWLT | 0.378 ± 0.23
QKHPGFKYHQNLRLVSLSKR | -0.837 ± 0.45
VKVPYMLARGLDQKGTRRWQ | 8.102 ± 0.064
FYPWDSVCEFSLGCMSNPQA | 0.158 ± 0.3
WYVFACLVELYNCGPHGAID | inactive
VNTNPMVAVPGMYIYYRWFL | inactive
DYFAIRWGQVT | inactive
IVAGVSSGQGIDQDSIVNKR | 0.102 ± 1.1
TLFSLREGLFNGIWTVSLSW | -1.09 ± 1.1
AGSARRLGLMPRGSGYALGW | 1.44 ± 0.17
FSRLNSWILRSHGNKVKALT | 0.552 ± 0.66
RPMWLSGAEKKWLSCWCNCM | 6.013 ± 0.046
NPVINT | -0.271 ± 0.46
STWWWYLCIQARLMCMRFLA | -0.357 ± 0.23
LSYLHG | -0.913 ± 0.63
HIIGLIYQKGTSWTA | 4.85 ± 0.073
ILRTDMMINMDLLFGNVGNL | 3.38 ± 0.089
NSRLMMCEIPERCM | 0.512 ± 0.28
HGLLTKLWRPFMHGSV | 0.203 ± 0.31
GTPVSLNFVLESRTRYQMGA | inactive
DITTEVKGSLLVMLSGDNAG | 0.807 ± 0.31
QSSYVATWVTLNLGCYFDWK | 0.284 ± 1.1
DKSFVSLSRFHSGRLEIRVM | -0.886 ± 0.49
YNASVDVLHY | -0.146 ± 1

Substance | amyloid nucleation score
DVLLVLHVIWCICYPLGVVS | 0.429 ± 0.4
HFDEPFFCCAGMHAH | 6.8 ± 0.056
IVGELVMTFKSVMAARTPFH | 4.19 ± 0.064
SYYTL | inactive
RRVMRLWMALPCNDMIGCIQ | -0.476 ± 0.37
VYHDHLKLWSKGTSRVAWAL | 2.34 ± 0.16
GRHQVIGMWCSRLFPLVRRS | 0.375 ± 0.56
GCGFFDFSVSWL | -1.24 ± 0.78
TDVRGDTSRGLGSFKLFRIM | -0.354 ± 0.76
PSSFNSRFFCLVTNGWQYMS | inactive
AEEQLLWFCYFRELKILNIF | inactive
STAKYVYYTLLR | 0.204 ± 0.65
DFGKIGEWDWAGGVYLSAWR | -0.137 ± 1.1
EIWRFLQHRGIYYFFWSFEK | inactive
NGLGLTIWL | 0.448 ± 0.22
LGFAMWFTPRFCFTVYNSYD | -0.422 ± 1
VVSINVQVDHVCYAFSQVSQ | 8.211 ± 0.062
YTHVNRWTCCSSIEICDWSY | 6.957 ± 0.047
SLEVCLIALDYGIQFLSTSA | 0.099 ± 0.18
HSVFNSMRRENLVNNNTLNG | inactive
RMWCQVKS | -0.236 ± 0.53
YMPPSCMSP | inactive
SCMCMEICINWNFRCIDGRG | 6.66 ± 0.078
GFRDMGDHIDVREKFSWADA | inactive
PRRVDRW | 0.339 ± 0.2

Substance | amyloid nucleation score
MGTHKTDGRRQYLVVSSCEV | 0.115 ± 1
CTQVMTERV | -0.091 ± 0.32
WISTTYASLDNPSHKGIVLM | -0.302 ± 0.48
PTCGNSPMVRWCSAETFVWG | 3.04 ± 0.13
VALMYFRFQKFDSSSSMHRF | 2.5 ± 0.18
NARITVLGSHPWLCPGKVSV | 1.06 ± 0.54
YVCVNWTFTFLFLCLVGRSL | 0.36 ± 0.22
LIIDQVIMNGINVPYTYLIY | 4.15 ± 0.056
HFNLCTQNMSNGYRDCRHT | 4.68 ± 0.11
RVRIYMTWFFTPIIWERWDG | inactive
PDWLCEVKRIYELIGYMALI | 0.41 ± 0.41
LGLTYGHHWY | 3.12 ± 0.071
ATLGTVRCYRKRAIFFEGHL | 1.17 ± 0.45
GITSFDTIYCGRVVYQRWLL | 0.578 ± 0.81
SVAWVLLWV | 0.636 ± 0.81
LSNYARGRVDVTLKNYLLLE | 0.476 ± 0.51
VPRFPA | inactive
VMTSIVFNRVSWYFLIMFVW | -0.987 ± 0.55
LCRMCIANCLMSCWESSYQV | 3.13 ± 0.17
APKGMTLFPQMLTLMCNTVG | 0.56 ± 0.74
